Columns and labels:
rhodopsin = rhodopsin (UniProt P02699); settings: cited from earlier work
[1] = molecular target: T1, His8-MBP-rhodopsin E113Q/M257Y (in N2C/N282C) (human, UniProt P08100 1-348, N2^NtermC | N282^ECL3C | E113^3.28Q | M257^6.40Y); test: pull-down
[2] = molecular target: T1, His8-MBP-rhodopsin E113Q/M257Y (in …); test: AlphaScreen or HTRF
[3] = molecular target: WT rhodopsin (1–321)-TEV site-tTA (Tango construct) (human, UniProt P08100 1-321, N2^NtermC | N282^ECL3C); test: Tango assay
[4] = molecular target: E113Q/M257Y rhodopsin (1–321)-TEV site-tTA (Tango construct) (human, UniProt P08100 1-321, N2^NtermC | N282^ECL3C | E113^3.28Q | M257^6.40Y); test: Tango assay

For arrestin (from UniProt P10523), the Kd (rhodopsin) is given as 50 nM.

B1: 35S-labelled 3A_arrestin (L374A/V375A/F376A, in vitro translated) (natural protein, mouse, UniProt P20443 1-403, looked up)
chain: MAACGKTNKSHVIFKKVSRDKSVTIYLGKRDYVDHVSQVEPVDGVVLVDPELVKGKKVYVTLTCAFRYGQEDIDVMGLTFRRDLYFSRVQVYPPVGAMSVLTQLQESLLKKLGDNTYPFLLTFPDYLPCSVMLQPAPQDVGKSCGVDFEVKAFASDITDPEEDKIPKKSSVRLLIRKVQHAPPEMGPQPSAEASWQFFMSDKPLNLSVSLSKEIYFHGEPIPVTVTVTNNTDKVVKKIKVSVEQIANVVLYSSDYYVKPVASEETQEKVQPNSTLTKTLVLVPLLANNRERRGIALDGKIKHEDTNLASSTIIKEGIDRTVMGILVSYHIKVKLTVSGFLGELTSSEVATEVPFRLMHPQPEDPAKESVQDENAAAEEFARQNLKDTGENTEGKKDEDAGQDE
modifications: 35S-methionine
For B1, the “fold of the binding of WT arrestin to WT rhodopsin, with all-trans-retinal” value [1] was about 60 fold.

B2: untagged 3A_arrestin (residues 10–392) (domain or fragment, mouse, UniProt P20443 10-392, looked up)
chain: SHVIFKKVSRDKSVTIYLGKRDYVDHVSQVEPVDGVVLVDPELVKGKKVYVTLTCAFRYGQEDIDVMGLTFRRDLYFSRVQVYPPVGAMSVLTQLQESLLKKLGDNTYPFLLTFPDYLPCSVMLQPAPQDVGKSCGVDFEVKAFASDITDPEEDKIPKKSSVRLLIRKVQHAPPEMGPQPSAEASWQFFMSDKPLNLSVSLSKEIYFHGEPIPVTVTVTNNTDKVVKKIKVSVEQIANVVLYSSDYYVKPVASEETQEKVQPNSTLTKTLVLVPLLANNRERRGIALDGKIKHEDTNLASSTIIKEGIDRTVMGILVSYHIKVKLTVSGFLGELTSSEVATEVPFRLMHPQPEDPAKESVQDENAAAEEFARQNLKDTGENTE
B2 gave an IC50 [2] of 15 nM.

B3: WT arrestin (10–392)-TEV protease (Tango construct) (domain or fragment, mouse, UniProt P20443 10-392, looked up)
chain: SHVIFKKVSRDKSVTIYLGKRDYVDHVSQVEPVDGVVLVDPELVKGKKVYVTLTCAFRYGQEDIDVMGLTFRRDLYFSRVQVYPPVGAMSVLTQLQESLLKKLGDNTYPFLLTFPDYLPCSVMLQPAPQDVGKSCGVDFEVKAFASDITDPEEDKIPKKSSVRLLIRKVQHAPPEMGPQPSAEASWQFFMSDKPLNLSVSLSKEIYFHGEPIPVTVTVTNNTDKVVKKIKVSVEQIANVVLYSSDYYVKPVASEETQEKVQPNSTLTKTLVLVPLLANNRERRGIALDGKIKHEDTNLASSTIIKEGIDRTVMGILVSYHIKVKLTVSGFLGELTSSEVATEVPFRLMHPQPEDPAKESVQDENLVFEEFARQNLKDTGENTE
With B3 the “fold increase of binding with all-trans-retinal” value [3] was about 3 fold.

B4: 3A_arrestin (10–392)-TEV protease (Tango construct) (domain or fragment, mouse, UniProt P20443 10-392, looked up)
chain: SHVIFKKVSRDKSVTIYLGKRDYVDHVSQVEPVDGVVLVDPELVKGKKVYVTLTCAFRYGQEDIDVMGLTFRRDLYFSRVQVYPPVGAMSVLTQLQESLLKKLGDNTYPFLLTFPDYLPCSVMLQPAPQDVGKSCGVDFEVKAFASDITDPEEDKIPKKSSVRLLIRKVQHAPPEMGPQPSAEASWQFFMSDKPLNLSVSLSKEIYFHGEPIPVTVTVTNNTDKVVKKIKVSVEQIANVVLYSSDYYVKPVASEETQEKVQPNSTLTKTLVLVPLLANNRERRGIALDGKIKHEDTNLASSTIIKEGIDRTVMGILVSYHIKVKLTVSGFLGELTSSEVATEVPFRLMHPQPEDPAKESVQDENAAAEEFARQNLKDTGENTE
In the case of B4, the “fold increase of binding signal with all-trans-retinal” value [4] is reported as about 5 fold.

In the case of TGGRVLEDLKSCGLF [GαCT peptide, a high affinity peptide variant of the C-terminus of G-transducin (Gt)], the IC50 [2] is reported as 700 nM.

From PMC4521999 (Nature, 2015)
